Assay results as given in publication PMC10725492 (Translational Psychiatry, 2023).
No end group written: not given here. *: point of attachment. Palmitoyl = CCCCCCCCCCCCCCCC(=O)*

Target: T1, recombinant APP N-terminal (18-612) fragment (UniProt P05067-4 18-612)
T1 construct: also called APP18-612; N-terminal APP; source: expressed by KMD Bioscience
Assay: SPR
Details: both partners purified

T1 sequence (P05067 other isoform, or with tags, fused parts or gaps): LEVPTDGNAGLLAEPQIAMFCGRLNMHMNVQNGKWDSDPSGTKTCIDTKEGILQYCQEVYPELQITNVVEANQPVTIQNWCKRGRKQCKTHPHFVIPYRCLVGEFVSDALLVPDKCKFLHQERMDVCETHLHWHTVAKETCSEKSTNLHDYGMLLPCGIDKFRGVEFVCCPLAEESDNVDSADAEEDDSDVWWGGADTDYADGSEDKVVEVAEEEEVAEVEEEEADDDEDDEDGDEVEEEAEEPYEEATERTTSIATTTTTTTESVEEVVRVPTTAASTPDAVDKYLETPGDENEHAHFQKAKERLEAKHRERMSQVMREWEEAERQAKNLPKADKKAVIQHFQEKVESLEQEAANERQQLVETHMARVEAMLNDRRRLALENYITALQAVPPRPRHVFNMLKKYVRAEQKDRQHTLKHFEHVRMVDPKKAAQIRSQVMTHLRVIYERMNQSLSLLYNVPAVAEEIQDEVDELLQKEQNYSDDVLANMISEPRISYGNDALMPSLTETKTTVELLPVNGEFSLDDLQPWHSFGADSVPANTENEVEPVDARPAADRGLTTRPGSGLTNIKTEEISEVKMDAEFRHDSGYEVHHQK

With KKKKKKLKVRLASHLRK(Palmitoyl)ELRKRLLRDA (not fully specified) [AY51 peptide] the Kd was 554 nM.
